{"source": "patent US8809001B2", "about": "“High throughput assays for inhibitors and activators of PAQR receptors” (University of Florida Research Foundation, Inc., priority 2007, dated 2014)", "key": {"[1]": {"target": "T1, AdipoR1 (Homo sapiens, UniProt Q96A54)", "T1 construct": "expressed in transfected cells; host or cells: Saccharomyces cerevisiae BY4742, GAL1-driven pYES260 plasmid", "T1 sequence (Q96A54 1-375)": "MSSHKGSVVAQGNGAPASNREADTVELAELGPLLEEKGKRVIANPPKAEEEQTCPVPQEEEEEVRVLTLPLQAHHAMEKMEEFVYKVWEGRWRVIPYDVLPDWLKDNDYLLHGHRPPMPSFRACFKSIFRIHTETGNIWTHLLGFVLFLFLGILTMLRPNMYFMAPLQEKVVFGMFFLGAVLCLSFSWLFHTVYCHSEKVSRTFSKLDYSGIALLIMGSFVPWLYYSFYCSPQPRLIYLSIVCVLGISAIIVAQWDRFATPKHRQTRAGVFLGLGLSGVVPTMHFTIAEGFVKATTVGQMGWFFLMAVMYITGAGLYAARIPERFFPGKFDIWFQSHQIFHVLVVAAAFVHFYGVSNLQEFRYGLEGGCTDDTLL", "test": "FET3-lacZ (pFET3-397) reporter repression in yeast expressing AdipoR1", "format": "cell-based", "conditions": "low levels of AdipoR1 (0.02% galactose)", "from_the_text": "IZH1-4 were cloned into pRS316-GAL1 via gap repair as previously described (Lyons et al., 2004). The triple hemaglutinin epitope (3×HA) tagged construct of the IZH2 gene was generated by replacing the ZRC1 promoter and open reading frame in the YCpZRC1-HA plasmid (MacDiarmid et al., 2002) with those of IZH2. This was accomplished by gap repair of Age I-digested YCpZRC1-HA to generate pIZH2-3×HA. This construct has the IZH2 gene driven by its native promoter and retains the ZRC1 terminator sequence. The native IZH2 promoter was then exchanged with the GAL1 promoter using gap repair of pIZH2-3×HA plasmids cut with EcoN I. AdipoR1 and AdipoR2 were amplified from cDNAs obtained from OpenBiosystems (Accession #: BC010743 and BC051858, respectively). PCR products were cloned into NcoI/BamHI digested pYES260 vector (Melcher, 2000) by gap repair allowing for GAL1-driven expression. Plasmids containing GAL1-driven the TAP (Tandem Affinity Purification) tagged NRG1 and NRG2 constructs were purchased from OpenBiosystems. […]\n(§1) Assays and growth conditions. […] Cells were allowed to grow to mid-log phase at which time the activity of the FET3 gene was monitored using a FET3-lacZ promoter-reporter construct. lacZ activities are presented as a percentage of activity seen in untreated cells expressing the appropriate empty expression vector control. […]"}, "[2]": {"test_system": "FET3", "test": "FET3-lacZ reporter in wild type yeast carrying empty expression plasmid", "format": "cell-based, Saccharomyces cerevisiae", "conditions": "no human PAQR", "from_the_text": "Assays and growth conditions. Strains were maintained using standard protocol and grown in synthetic defined (SD) media with the appropriate amino acids to match the auxotrophies of the individual strains. Low Iron Medium (LIM) contains EDTA to limit iron-bioavailability and its composition has been previously described (Kupchak et al., 2007). […] In brief, overnights of cells grown in SD-glucose media were re-inoculated into iron-deficient LIM to induce the expression of FET3. 2% galactose was used as a carbon source to induce full expression of PAQR genes driven by the GAL1 promoter, while 0.05% galactose/1.95% raffinose was used for reduced PAQR expression. All ligands were added to the growth medium upon re-inoculation into LIM. For experiments in which steroids were added as ligands, steroids were added from ethanol stocks and “untreated” controls are actually treated with an equal volume of ethanol to control for vehicle effects. Cells were allowed to grow to mid-log phase at which time the activity of the FET3 gene was monitored using a FET3-lacZ promoter-reporter construct. lacZ activities are presented as a percentage of activity seen in untreated cells expressing the appropriate empty expression vector control. For individual experiments, each data point has been done in triplicate and the error bars represent +/−1 standard deviation. All experiments were performed at least three times and a representative experiment is shown. EC50 values were obtained using the web-based BioDataFit software using sigmoidal curve-fitting. (web site changbioscience.com/stat/ec50.html)"}, "[3]": {"test_system": "AdipoR2", "sequence (Q86V24 76-386 limits assumed)": "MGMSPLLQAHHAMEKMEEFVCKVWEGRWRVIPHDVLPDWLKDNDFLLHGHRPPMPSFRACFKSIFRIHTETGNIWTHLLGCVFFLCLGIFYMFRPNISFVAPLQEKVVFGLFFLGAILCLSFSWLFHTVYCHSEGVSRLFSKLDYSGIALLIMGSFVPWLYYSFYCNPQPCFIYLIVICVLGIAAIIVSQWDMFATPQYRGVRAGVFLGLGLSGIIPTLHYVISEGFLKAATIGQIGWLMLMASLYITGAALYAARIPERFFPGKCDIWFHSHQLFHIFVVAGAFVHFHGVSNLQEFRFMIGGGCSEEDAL", "test": "FET3-lacZ (pFET3-397) reporter repression in yeast expressing AdipoR2", "format": "cell-based, human", "from_the_text": "IZH1-4 were cloned into pRS316-GAL1 via gap repair as previously described (Lyons et al., 2004). The triple hemaglutinin epitope (3×HA) tagged construct of the IZH2 gene was generated by replacing the ZRC1 promoter and open reading frame in the YCpZRC1-HA plasmid (MacDiarmid et al., 2002) with those of IZH2. This was accomplished by gap repair of Age I-digested YCpZRC1-HA to generate pIZH2-3×HA. This construct has the IZH2 gene driven by its native promoter and retains the ZRC1 terminator sequence. The native IZH2 promoter was then exchanged with the GAL1 promoter using gap repair of pIZH2-3×HA plasmids cut with EcoN I. AdipoR1 and AdipoR2 were amplified from cDNAs obtained from OpenBiosystems (Accession #: BC010743 and BC051858, respectively). PCR products were cloned into NcoI/BamHI digested pYES260 vector (Melcher, 2000) by gap repair allowing for GAL1-driven expression. Plasmids containing GAL1-driven the TAP (Tandem Affinity Purification) tagged NRG1 and NRG2 constructs were purchased from OpenBiosystems.\nMost experiments were performed in a defined EDTA-containing medium known as low iron medium (LIM) (Eide et al., 1992). Iron-deficiency and repletion were generated by adding either 1 μM or 1 mM of FeCl3, respectively, to LIM. 2% galactose was used to fully induce GAL1-driven gene overexpression. Total sugar concentration was maintained at 2% by the addition of raffinose in those experiments in which the % galactose was modulated to decrease expression levels. Cells were allowed to grow to mid-log phase in LIM and β-galactosidase assays on permeabilized yeast were performed as previously described (Lyons et al., 2000). […]\nas §1"}}}
{"molecule": "Adiponectin: insulin-sensitizing hormone, agonist of the human adiponectin receptors AdipoR1 and AdipoR2 (protein, UniProt Q15848 19-244, looked up) Adiponectin: ETTTQGPGVLLPLPKGACTGWMAGIPGHPGHNGAPGRDGRDGTPGEKGEKGDPGLIGPKGDIGETGVPGAEGPRGFPGIQGRKGEPGEGAYVYRSAFSVGLETYVTIPNMPIRFTKIFYNQQNHYDGSTGKFHCNIPGLYYFAYHITVYMKDVKVSLFKKDKAMLFTYDQYQENNVDQASGSVLLHLEVGDQVWLQVYGEGERNGLYADNDNDSTFTGFLLYHDTN", "values": [{"measurement": "pFET3-397 repression by adiponectin", "setting": "[1]", "result": "repressed in a dose-dependent manner"}, {"measurement": "effect of ligand on FET3 in cells carrying empty expression plasmid", "setting": "[2]", "result": "did not respond"}, {"measurement": "EC50", "setting": "[3]; AdipoR2, FET3 repression in iron-deficient LIM", "result": 2.4, "unit": "pM"}, {"measurement": "pFET3-397 repression by adiponectin", "setting": "[3]; AdipoR2 in 2% galactose", "result": "repressed in a dose-dependent manner"}]}
